Experimental data: publication PMC9181795, “Ibuprofen Favors Binding of Amyloid-β Peptide to Its Depot, Serum Albumin” (International Journal of Molecular Sciences, 2022)
“Also recorded” adds a separate entry of the source. Each block holds one molecule with its values, some of them ahead of it.

Columns and labels:
[1] = tested on: HSA–Aβ interaction; design: method as in 5 sources, ref [12] = [12]; PMID 30685090; doi:10.1016/j.bbrc.2019.01.081; 12. Litus E.A. Kazakov A.S. Sokolov A.S. Nemashkalova E.L. Galushko E.I. Dzhus U.F. Marchenkov V.V. Galzitskaya O.V. Permyakov E.A. Permyakov S.E. The binding of monomeric amyloid beta peptide to seru ||| ref [12],[13] = [12]; PMID 30685090; doi:10.1016/j.bbrc.2019.01.081; 12. Litus E.A. Kazakov A.S. Sokolov A.S. Nemashkalova E.L. Galushko E.I. Dzhus U.F. Marchenkov V.V. Galzitskaya O.V. Permyakov E.A. Permyakov S.E. The binding of monomeric amyloid beta peptide to seru || [13]; PMID 34072751; doi:10.3390/ijms22115896; 13. Litus E.A. Kazakov A.S. Deryusheva E.I. Nemashkalova E.L. Shevelyova M.P. Nazipova A.A. Permyakova M.E. Raznikova E.V. Uversky V.N. Permyakov S.E. Serotonin promotes serum albumin interaction with ||| ref [7] = [7]; PMID 10347147; doi:10.1074/jbc.274.23.15990; 7. Bohrmann B. Tjernberg L. Kuner P. Poli S. Levet-Trafit B. Naslund J. Richards G. Huber W. Dobeli H. Nordstedt C. Endogenous proteins controlling amyloid beta-peptide polymerization. Possible implic ||| ref [14] = [14]; PMID 29409811; doi:10.1016/j.jmb.2018.01.008; 14. Bode D.C. Stanyon H.F. Hirani T. Baker M.D. Nield J. Viles J.H. Serum albumin’s protective inhibition of amyloid-β fiber formation is suppressed by cholesterol, fatty acids and warfarin J. Mol. Bi ||| ref [13] = [13]; PMID 34072751; doi:10.3390/ijms22115896; 13. Litus E.A. Kazakov A.S. Deryusheva E.I. Nemashkalova E.L. Shevelyova M.P. Nazipova A.A. Permyakova M.E. Raznikova E.V. Uversky V.N. Permyakov S.E. Serotonin promotes serum albumin interaction with; settings: cited from earlier work; for effect on HSA affinity toward monomeric Aβ: ref [12],[13]; for effect of HSA ligand on HSA–Aβ interaction: ref [14]
[2] = molecular target: A21G mutant of amyloid-β peptide 1-40, Flemish variant of Aβ40 (human); test: SPR; Aβ immobilised by amine coupling on a ProteOn GLH chip (6000-9000 RU), non-covalently bound Aβ washed off (2% SDS, 100 mM HCl, 20 mM EDTA pH 8.0 with 1% SDS) to leave monomeric Aβ; analyte 0.5-8 uM HSA; no IBU; 25 °C; 20 mM Tris-HCl, 140 mM NaCl, […] KCl, 1 mM MgCl2, […] CaCl2, pH 7.4; heterogeneous ligand model (two ligand populations L1 and L2)
[3] = molecular target: A21G mutant of amyloid-β peptide 1-40, Flemish variant of Aβ40 (human); test: SPR; as a1, but with 100 uM ibuprofen (IBU) in the running buffer: Aβ immobilised by amine coupling and washed to monomer; analyte 0.5-8 uM HSA; 25 °C; 20 mM Tris-HCl, 140 mM NaCl, […] KCl, 1 mM MgCl2, […] CaCl2, pH 7.4; heterogeneous ligand model (two ligand populations L1 and L2)

Molecule: CCCCC/C=C\C/C=C\C/C=C\C/C=C\CCCC(=O)O [arachidonic acid, arachidonic]
effect on HSA affinity toward monomeric Aβ [1]: enhance HSA affinity toward monomeric Aβ

Molecule: CC(C)CCC[C@@H](C)[C@H]1CC[C@H]2[C@@H]3CC=C4C[C@@H](O)CC[C@]4(C)[C@H]3CC[C@]12C [cholesterol]
effect of HSA ligand on HSA–Aβ interaction [1]: exert the opposite effect; also recorded: act in the opposite direction

Molecule: CCCCC/C=C\C/C=C\CCCCCCCC(=O)O [linoleic acid]
effect on HSA affinity toward monomeric Aβ [1]: enhance HSA affinity toward monomeric Aβ

Molecule: NCCc1c[nH]c2ccc(O)cc12 [serotonin]
effect on HSA affinity toward monomeric Aβ [1]: enhance HSA affinity toward monomeric Aβ

Molecule: N[C@@H](Cc1c[nH]c2ccccc12)C(=O)O [tryptophan]
effect on the HSA–Aβ40/Aβ42 equilibrium ([1]; ref [13]): does not affect the HSA–Aβ40/Aβ42 equilibrium

Molecule: CC(=O)CC(c1ccccc1)c1c(O)c2ccccc2oc1=O (stereo not shown) [warfarin]
effect of HSA ligand on HSA–Aβ interaction [1]: exert the opposite effect; also recorded: act in the opposite direction

Kd2 (ligand population L2) [2]: 670 pM
ka1 (ligand population L1) [2]: 30000 M⁻¹ s⁻¹
kd2 (ligand population L2) [2]: 1.8e-06 s⁻¹
Kd1 (ligand population L1) [3]: 8.2 pM
ka1 (ligand population L1) [3]: 25000 M⁻¹ s⁻¹
kd1 (ligand population L1) [3]: 2e-07 s⁻¹
kd2 (ligand population L2) [3]: 1.03e-06 s⁻¹
Molecule: human serum albumin (from UniProt P02768 25-609) (natural protein)
